The text below walks through data of the supplement of paper PMC12042874.

± gives the uncertainty stated by the source.

The series is described as follows: amyloid nucleation score (Sup35N fusion, yeast selection) (log enrichment); library NNK2; higher = more nucleation; inactive = no reads after selection. Summed up:
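Peptides of 20 random codons fused to Sup35N were expressed in psi-negative yeast, induced 24 hours with 100 μM copper sulfate, then grown 7 days at 30°C on medium lacking adenine and uracil. Input and output plasmid inserts were Illumina-sequenced. Nucleation score is the DiMSum log enrichment of output over input reads, centred on the mode score of non-aggregating sequences, excluding sequences with under 100 input reads. Random libraries had three technical output replicates.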
As for DDVSHPHLKCIVWD, the amyloid nucleation score result was “inactive”.

As to DEGVPSGYVTAL, the amyloid nucleation score was -0.354 ± 0.76.

With DEKIYLVSG, the amyloid nucleation score stood at 0.472 ± 0.66.

As to DEPLWKLKFKFEWFIRTLVI, the amyloid nucleation score is -1.37 ± 0.76.

DFAGSKDDWTSQMMGVLDGL yielded an amyloid nucleation score of -0.689 ± 0.44.

Consider DFESGWFSVDFVN, for which the amyloid nucleation score is -0.853 ± 0.55.

In turn, DFGKIGEWDWAGGVYLSAWR gave an amyloid nucleation score of -0.137 ± 1.1.

As for DFGVWFFFYTHQLSA, the amyloid nucleation score is -0.113 ± 1.1.

Substance DFISCVLFSLFFRTLSRKGH returned an amyloid nucleation score of -0.679 ± 0.64.

Consider DFMFFVYPSNSMLKGISRGR, for which the amyloid nucleation score was -1.77 ± 0.48.

DFNLWPLC came in with an amyloid nucleation score of -0.373 ± 1.1.

Substance DFVHVEIDPYQVGGGFQ gave an amyloid nucleation score of 8.764 ± 0.046.

With DFYSNEWRGDEICVQLLELV, the amyloid nucleation score stood at 0.393 ± 0.66.

Regarding DFYSNYILLRSSP, the amyloid nucleation score was -1.84 ± 1.

Consider DGFMLMFFTITIRFPNALQV, for which the amyloid nucleation score result is “inactive”.

As to DGFSFIVRSFVWRNNHADAG, the amyloid nucleation score was found to be 3.71 ± 0.12.

On to DGFVGALDGVISSCWNTLRG, for which the amyloid nucleation score is -0.701 ± 0.63.

Consider DGSHLSKTDVK, for which the amyloid nucleation score is 0.113 ± 0.2.

Regarding DGVRGLYKRLRMCTTCLCTL, the amyloid nucleation score amounted to 6.48 ± 0.079.

For the substance DGVSCSRVNAVVYARLSQMG, the amyloid nucleation score worked out at 1.3 ± 0.23.

On to DHADWNAYHISTEV, for which the amyloid nucleation score was 3.25 ± 0.05.

In turn, DHLNV displayed an amyloid nucleation score of -0.401 ± 0.63.

DIFCLRPYKLPGYTFYYFVY: the amyloid nucleation score entry is “inactive”.

Consider DINSQEVCSVTELGR, for which the amyloid nucleation score is -0.247 ± 0.45.

DITTEVKGSLLVMLSGDNAG: the amyloid nucleation score turned out to be 0.807 ± 0.31.

DIYPRLLEDVFYPFVQPHLF: the amyloid nucleation score is -0.505 ± 1.1.

Substance DKMYVIIVGPLAAMENVNNT yielded an amyloid nucleation score of 0.024 ± 0.48.

The substance DKSFVSLSRFHSGRLEIRVM had an amyloid nucleation score of -0.886 ± 0.49.

For the substance DKYAGCNSDDINWMKDRVSG, the amyloid nucleation score is 0.029 ± 0.5.

Take DLAFFMLHYLHIRRCKDYPR: the amyloid nucleation score entry was “inactive”.

With DLCQSHLPCHMRRTSFRQLP, the amyloid nucleation score was 0.606 ± 0.36.

The substance DLHPGNSNAD came in with an amyloid nucleation score of -0.146 ± 0.54.

Substance DLKVDQSVWRSLDMNALVAN returned an amyloid nucleation score of 1.27 ± 0.44.

DLNYFSTMGEVLYMFSVLTY registered an amyloid nucleation score of -0.08 ± 1.

With DLRRSKSFDDTNEHWHSGFR, the amyloid nucleation score was -0.607 ± 0.64.

The substance DLSHNVNVCICFCWAMRYDA came in with an amyloid nucleation score of 8.342 ± 0.045.

With DLSRLCVGHAVI, the amyloid nucleation score was found to be 0.446 ± 0.18.

Regarding DLSVLDLGVLFINRFTRTLE, the amyloid nucleation score result was “inactive”.

Substance DLTCSC had an amyloid nucleation score of 0.804 ± 0.3.

The substance DLYNCMHWQHVEYIMLLHGL returned an amyloid nucleation score of -0.846 ± 0.35.

With DLYQALSISV, the amyloid nucleation score was -0.308 ± 0.39.

For DMGGPTTIY, the amyloid nucleation score came out at 0.798 ± 0.67.

In turn, DMLPVRVVAHWCVVARCTRV had an amyloid nucleation score of 0.965 ± 0.2.

The substance DMLVCNGLFVFRASKGTIDA gave an amyloid nucleation score of -0.837 ± 1.1.

In the case of DMLVDYSIKDDRVYKVRLPM, the amyloid nucleation score was -1.61 ± 0.62.

Turning to DMVCRY, the amyloid nucleation score is -0.272 ± 0.36.

DNCFAAFSFRRGVAYVDL showed an amyloid nucleation score of -0.52 ± 0.38.

DNDMG returned an amyloid nucleation score of -0.267 ± 0.25.

DNDYTWIKFLKCGRADASGT showed an amyloid nucleation score of 0.157 ± 0.5.

In the case of DNFFIMALHSSREVDMKNRS, the amyloid nucleation score was -1.53 ± 1.

The substance DNKWILDRLIQHSLDHKVCR displayed an amyloid nucleation score of -0.332 ± 0.63.

For DNMDFMMCKINSGLNLTLSS, the amyloid nucleation score was -2.33 ± 0.62.

In turn, DNVMLYKRKKQRPIMVPWSA showed an amyloid nucleation score of -0.488 ± 0.35.

DPLPMSYRVYSARSW displayed an amyloid nucleation score of -0.81 ± 1.

For the substance DPNLGLSTW, the amyloid nucleation score amounted to 0.47 ± 0.34.

In the case of DPNLPETVTGVIMFASVGGA, the amyloid nucleation score was -0.13 ± 0.76.

As to DPSGYHVSFHSGDGGCEYC, the amyloid nucleation score was determined as 2.71 ± 0.085.

With DQAHRGSCDVS, the amyloid nucleation score is 0.214 ± 0.63.

For the substance DQKTMTTVL, the amyloid nucleation score is 0.368 ± 0.45.

DRAVRQFIFLVYGSSLDWDI displayed an amyloid nucleation score of 0.044 ± 0.79.

In turn, DREFLGDCWVLAELSKTRLI showed an amyloid nucleation score of 3.24 ± 0.093.

With DRFTAGLIFCMLCLGRYVCM, the amyloid nucleation score entry was “inactive”.

Substance DRGYVTD displayed an amyloid nucleation score of 1.14 ± 0.4.

In turn, DRICRVDIYDVRDQSYTFSG displayed an amyloid nucleation score of -0.279 ± 0.29.

DRRGQQVLGPACRGCWFWPD came in with an amyloid nucleation score of 0.305 ± 1.

As for DRRWHRALQN, the amyloid nucleation score was determined as 0.137 ± 0.37.

As for DRWMTGMDAVYLHRRGPLFF, the amyloid nucleation score was 0.13 ± 0.8.

As for DRYSTCSNRKSTRYLFMTFA, the amyloid nucleation score amounted to 0.151 ± 0.36.

DSAGASFNSCCGAE registered an amyloid nucleation score of 0.122 ± 1.1.

For DSCGLCRYGGEMFRKFKFIS, the amyloid nucleation score entry is “inactive”.

In turn, DSDNIPNHTYMILFGIQFHS returned an amyloid nucleation score of -0.311 ± 0.65.

In the case of DSFFAEMDNLNSGRTPFKGT, the amyloid nucleation score result is “inactive”.

As to DSISFNPYRMLRDNYLLHVC, the amyloid nucleation score was found to be 1.9 ± 0.13.

For DSISNISDPCGFLGQESWVN, the amyloid nucleation score was found to be 4.83 ± 0.063.

In turn, DSNRMNVNRTPDGVLGGCGT had an amyloid nucleation score of 0.468 ± 0.38.

Take DSSLKLGNTETFIDRSMLCN: the amyloid nucleation score is -0.407 ± 0.4.

Regarding DSSRRM, the amyloid nucleation score was -1.43 ± 0.78.

The substance DSSYVSVHRFCNFGYLIFCF displayed an amyloid nucleation score of 7.734 ± 0.064.

DSTFKYYRTYLKERR had an amyloid nucleation score of -0.357 ± 0.41.

As to DSVSTVVFII, the amyloid nucleation score was 4.47 ± 0.045.

Take DSWFEQCVVFWLKTNCPQQE: the amyloid nucleation score is -0.069 ± 0.25.

With DTDDVNHYSFTPRALSSGFI, the amyloid nucleation score entry is “inactive”.

With DTILWRSSHAEGTEAWHMGF, the amyloid nucleation score was 1.28 ± 0.38.

The substance DTRVSFRFMVTYLIMVYRFL showed an amyloid nucleation score of 0.774 ± 0.22.

Turning to DTYDSCMSSVMISFR, the amyloid nucleation score was determined as 0.343 ± 0.51.

For the substance DVAIRVYYMYMYERYVTRLF, the amyloid nucleation score result is “inactive”.

Consider DVFWYDATTRYGGRCRGQIS, for which the amyloid nucleation score amounted to 1.11 ± 0.31.

Consider DVLLVLHVIWCICYPLGVVS, for which the amyloid nucleation score amounted to 0.429 ± 0.4.

In turn, DVMSSPGVSFITTVAFDVC returned an amyloid nucleation score of 0.382 ± 0.8.

DVREFSSDYSQVGVEVLVFL: the amyloid nucleation score amounted to 0.373 ± 0.42.

On to DVRRLLFLLLGQ, for which the amyloid nucleation score is -0.796 ± 0.4.

DVSESRSTVDGSDNEGWLTD displayed an amyloid nucleation score of 0.299 ± 0.42.

On to DWRLARLSSVRFLNGIDCDF, for which the amyloid nucleation score was found to be 0.015 ± 0.56.

DWRRWM gave an amyloid nucleation score of 0.422 ± 0.5.

The substance DWSVKCGVMERI returned an amyloid nucleation score of -0.295 ± 0.4.

In the case of DYDGTPGCVEKSTIIFMV, the amyloid nucleation score result is “inactive”.

Turning to DYFAIRWGQVT, the amyloid nucleation score entry is “inactive”.

DYGWKLMVKVDWFLNGHQ: the amyloid nucleation score was 4.39 ± 0.048.

The substance DYLVRGQEY showed an amyloid nucleation score of 0.357 ± 0.43.

Regarding DYLVSMTVNSASLFRYIERR, the amyloid nucleation score is 5.209 ± 0.029.

In turn, DYQGGCSILTSEDEPYEVAC yielded an amyloid nucleation score of 1.56 ± 0.44.

In the case of DYSFGMSCLEDIFREHEILG, the amyloid nucleation score is -0.879 ± 1.1.

Turning to DYWLMEWMRYVHRLVGNCWY, the amyloid nucleation score was -0.959 ± 1.1.

Turning to EACRLYHRVVKAFGEARCSV, the amyloid nucleation score is 0.518 ± 0.28.

In turn, EADLYSTAIQLDK displayed an amyloid nucleation score of -0.313 ± 0.44.

Substance EARILIKLLI had an amyloid nucleation score of 2.58 ± 0.091.

Substance EAYVHGMR displayed an amyloid nucleation score of 1.07 ± 0.25.

ECVDCESIEMEAVSC registered an amyloid nucleation score of 1.26 ± 0.16.

In turn, ECYETRTSMEY showed an amyloid nucleation score of -0.102 ± 0.56.

The substance EDDVSYNSFSGQASLWKFPK registered an amyloid nucleation score of -0.818 ± 0.56.

In the case of EDIWEMRSLHLWLSCSGWTD, the amyloid nucleation score is 2.27 ± 0.15.

EDRNSAFAWSSH had an amyloid nucleation score of 3.54 ± 0.14.

Turning to EDSPKFKGGPGIYHSVVLVG, the amyloid nucleation score came to 0.394 ± 0.27.

EDWNPSTMFVRFWYNSACWY: the amyloid nucleation score amounted to 0.204 ± 0.6.

Turning to EFFALMDARVFVSVMLQEVD, the amyloid nucleation score was -0.268 ± 0.63.

The substance EFSSTTSALGKDVRVFNFAI yielded an amyloid nucleation score of -1.26 ± 0.62.

EFWVLNYVITNLHWQTYSIM came in with an amyloid nucleation score of -1.29 ± 1.

In the case of EGLQFRCLRNSEILVCGYFS, the amyloid nucleation score is 0.466 ± 0.54.

As to EGSNYYTMVV, the amyloid nucleation score entry is “inactive”.

With EHLGIIAIRCAQIHKFLPEL, the amyloid nucleation score is 0.539 ± 0.36.

In turn, EIHYMCELIMQWVYSGLTSR came in with an amyloid nucleation score of 0.607 ± 0.35.

In the case of EIMCLHKNALCFQCSTSGCA, the amyloid nucleation score was found to be 7.52 ± 0.046.

EITFLCSGKSDSDMYVGFAS: the amyloid nucleation score amounted to 2.08 ± 0.072.

For EIWRFLQHRGIYYFFWSFEK, the amyloid nucleation score result was “inactive”.

As to EKFYLDLG, the amyloid nucleation score is -0.006 ± 0.54.

For the substance EKLWIMLTLICNIVRSPSYK, the amyloid nucleation score is -0.515 ± 1.1.

EKYRGSLMSRLAKMWNCCVT gave an amyloid nucleation score of 1.04 ± 0.27.

In turn, ELFRDNTGSSVVGNSRSSDA came in with an amyloid nucleation score of 0.438 ± 0.17.

In the case of ELFTLGLEGALEVNELKLKY, the amyloid nucleation score is 0.782 ± 0.18.

Consider ELKVMGYMCPL, for which the amyloid nucleation score was 0.801 ± 0.82.

Substance ELTGYT showed an amyloid nucleation score of -0.388 ± 0.56.

Substance EMVSLCSSRFRRMMGACLGT registered an amyloid nucleation score of 1.39 ± 0.21.

Consider EMYKQVRFVVIGIIC, for which the amyloid nucleation score came out at 1.21 ± 0.24.

For the substance ENCLESWTCI, the amyloid nucleation score is -1.08 ± 0.78.

Consider ENIISERAFS, for which the amyloid nucleation score result was “inactive”.

As to ENLYGFWYLTRCRMF, the amyloid nucleation score was -0.096 ± 0.39.

In the case of ENQPVELSTTRDTRAGMSDT, the amyloid nucleation score entry is “inactive”.

In the case of ENSFLVRKTSH, the amyloid nucleation score was -0.262 ± 0.36.

Take EPCNTNIK: the amyloid nucleation score was -0.553 ± 0.29.
